In patent publication US20210206850A1 (ACCURUS BIOSCIENCES, published 2021):

What was measured:
[1] = biological target: T1, human CD47ECD mouse Fc protein (human, UniProt Q08722 19-139, limits assumed); test: SPR (Biacore 3000); antibody captured on anti-human Fc chip, bivalent HuCD47ECD muFc injected
T1 construct: extracellular domain; also called HuCD47ECD muFc; bivalent CD47ECD muFc protein; not shown: mouse Fc
Description: (§1) The binding affinities of anti-human CD47 mouse/human chimeric antibodies to human CD47 protein were determined with BIACORE™ using a capture method. The anti-human CD47 mouse/human chimeric antibodies were captured using anti-human Fc antibody coated on a CMS chip. Serial dilutions of human CD47ECD mouse Fc protein starting from 400 nM were injected over captured antibody for 1 mins at a flow rate of […]. Alternatively, serial dilutions of human CD47ECD His tagged protein starting from 800 nM were injected over captured antibody for 1 min at a flow rate of […]. The antigens were allowed to dissociate for 900s. All the experiments were carried out on a Biacore 3000. Data analysis was carried out using Biacore 3000 evaluation software.

[2] = biological target: T2, human CD47ECD His tagged protein (human, UniProt Q08722 19-139, limits assumed); test: SPR (Biacore 3000); antibody captured on anti-human Fc chip, monovalent HuCD47ECD 8xHis injected
T2 construct: extracellular domain; also called HuCD47ECD 8xHis; monovalent CD47ECD His tagged protein
T2 sequence (Q08722 19-139 limits assumed): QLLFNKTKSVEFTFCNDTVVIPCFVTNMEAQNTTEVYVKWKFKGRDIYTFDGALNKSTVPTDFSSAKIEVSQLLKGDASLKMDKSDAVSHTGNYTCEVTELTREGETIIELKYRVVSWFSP
Description: as §1

[3] = biological target: T3, human CD47 (full length) expressed on cells (human, UniProt Q08722 19-323); test: FACS ligand blocking on CD47-CHO cells; blocked ligand FITC human SIRPa huFc at 4 ug/ml
T3 construct: whole, on cells; also called human CD47/CHO cells; CHO/CD47 cells
T3 sequence (Q08722 19-323): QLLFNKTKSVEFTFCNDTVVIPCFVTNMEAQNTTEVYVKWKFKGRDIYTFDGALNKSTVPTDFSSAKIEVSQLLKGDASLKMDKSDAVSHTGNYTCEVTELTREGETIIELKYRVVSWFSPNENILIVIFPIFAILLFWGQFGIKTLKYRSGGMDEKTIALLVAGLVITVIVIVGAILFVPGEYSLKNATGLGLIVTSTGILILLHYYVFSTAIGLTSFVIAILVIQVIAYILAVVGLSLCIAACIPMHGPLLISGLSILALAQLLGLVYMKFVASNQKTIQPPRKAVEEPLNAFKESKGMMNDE
Description: To evaluate the blocking effect of anti-human CD47 mouse/human chimeric antibodies to human full length CD47 expressed on CHO cells, the FACS-based ligand blocking assay was used. CD47-CHO cells were first incubated with 3 fold serially diluted mouse/human chimeric mAbs starting at 100 μg/ml on ice for 30 min. […] The cells were then washed 3 times with the FACS buffer and the mean florescence intensities (MFI) of FITC were evaluated by FACS Caliber. […] AB6.12 is a humanized version of anti-CD47 antibody 2A1 from Celgene and was used as a reference antibody in the assay.

[4] = biological target: T1, human CD47ECD mouse Fc protein; test: SPR (Biacore 3000); antibody captured on anti-human Fc chip, bivalent HuCD47ECD muFc injected; column Affinity (nM)
Description: as §1

[5] = biological target: T2, human CD47ECD His tagged protein; test: SPR (Biacore 3000); antibody captured on anti-human Fc chip, monovalent HuCD47ECD 8xHis injected; column Affinity (nM)
Description: as §1

[6] = biological target: T3, human CD47 (full length) expressed on …; test: FACS ligand blocking on CD47-CHO cells; blocked ligand FITC human SIRPa huFc at 5 ug/ml
Description: The cells were then washed 3 times with the FACS buffer and the mean florescence intensities (MFI) of FITC were evaluated by FACS Caliber.

[7] = biological target: T2, human CD47ECD His tagged protein; test: ELISA ligand blocking, plate coated with human CD47 ECD His tagged protein at 1 ug/ml; blocked ligand human SIRPaECD muFc at 1 ug/ml, anti-mouse IgG-HRP
Description: Briefly, microtiter plates were coated with human CD47ECD His tagged protein at 1 μg/ml in PBS, 100 μl well at 4° C. overnight, then blocked with 100 μl/well of 2% BSA. […] The plates were washed with PBS/Tween and then incubated with anti-mouse IgG-HRP for 1 hour at 37° C. After washing, the plates were developed with TMB substrate and analyzed by spectrophotometer at OD 450 nm.

T1 sequence (Q08722 19-139 limits assumed): as the sequence (Q08722 19-139 limits assumed) above

Kd [1] [nM] | koff [1] [s⁻¹] | kon [1] [M⁻¹ s⁻¹] | Kd [2] [nM] | koff [2] [s⁻¹] | kon [2] [M⁻¹ s⁻¹] | IC50 [3] [µg/mL] | Kd [4] [nM] | Kd [5] [nM] | IC50 [6] [µg/mL] | IC50 [7] [µg/mL] | Binder
0.346 | 7.72e-05 | 223000 | 3.62 | 0.000511 | 163000 | 15.4 | 0.346 | 3.62 | – | – | D125S3 mouse/human chimeric anti-human CD47 antibody (antibody, V domains shown, also called chimeric D125S3) VH: EVQLVESGGDLVKPGGSLNLSCAASGFTFSDYGMSWVRQTPDMRLEWVATISKYGTYTSYPDSVKGRFTISRSNAKNTLYLQMSSLKSADTALYYCARRFFGNYNYWYFDVWGAGTTVTVSS VL: DIVLTQSPASLAVSLGQRATFSCRASESVDEFGISYIHWYKKSPGQPPKLLIYRASTLESGISARFSGSGSGTDFTLTINPVETDDVATYYCQQSNQDPLTFGAGTKLELK
0.0194 | 1.18e-05 | 605000 | 0.702 | 0.000236 | 337000 | 5.1 | 0.0194 | 0.702 | 1.6 | 0.07 | D36S4 mouse/human chimeric anti-human CD47 antibody (antibody, V domains shown, also called chimeric D36S4 antibody; D36S4 H/L) VH: EVKLEESGGGLVQPGGSMKLSCVASGFTFSRYWMNWVRQSPDKGLEWVAQIRLKSDNYETHYAESVKGRFTISRDDSKSSVYLQMNNLRAEDTGIYYCIEEGGYYVPFAYWGQGTLVTVSA VL: DIVVSQSPSSLAVSAGEKVTMSCKSSQSLFKSRTRKNYLAWYQQRPGQSPKLLIYWASIRESGVPDRFTGSGSGTEFTLTISSVQAEDLAVYYCKQSYYLLTFGAGTKLELK
– | – | – | – | – | – | – | – | – | 1.9 | 0.09 | HuD36S4 H2/L1 humanized anti-CD47 antibody (antibody, V domains shown) VH: EVQLVESGGGLVQPGGSLRLSCAASGFTFSRYWMNWVRQAPGKGLEWVGQIRLKSDNYETHYAESVKGRFTISRDDSKNSLYLQMNSLKTEDTAVYYCIEEGGYYVPFAYWGQGTLVTVSS VL: DIVMTQSPDSLAVSLGERATINCKSSQSLFKSRTRKNYLAWYQQKPGQPPKLLIYWASIRESGVPDRFSGSGSGTDFTLTISSLQAEDVAVYYCKQSYYLLTFGGGTKVEIK
– | – | – | – | – | – | – | – | – | 3.6 | 0.11 | HuD36S4 H2/L2 humanized anti-CD47 antibody (antibody, V domains shown) VH: EVQLVESGGGLVQPGGSLRLSCAASGFTFSRYWMNWVRQAPGKGLEWVGQIRLKSDNYETHYAESVKGRFTISRDDSKNSLYLQMNSLKTEDTAVYYCIEEGGYYVPFAYWGQGTLVTVSS VL: DIVMTQTPLSLPVTPGEPASISCKSSQSLFKSRTRKNYLAWYLQKPGQSPQLLIYWASIRESGVPDRFSGSGSGTDFTLKISRVEAEDVGVYYCKQSYYLLTFGGGTKVEIK
– | – | – | – | – | – | – | – | – | 7.3 | 2.3 | HuD36S4 H1/L1 humanized anti-CD47 antibody (antibody, V domains shown) VH: EVQLVESGGGLVQPGGSLRLSCAASGFTFSRYWMNWVRQAPGKGLEWVGQIRLKSDNYETHYAESVKGRFTISRDDSKNSLYLQMNSLKTEDTAVYYCAREGGYYVPFAYWGQGTLVTVSS VL: DIVMTQSPDSLAVSLGERATINCKSSQSLFKSRTRKNYLAWYQQKPGQPPKLLIYWASIRESGVPDRFSGSGSGTDFTLTISSLQAEDVAVYYCKQSYYLLTFGGGTKVEIK
– | – | – | – | – | – | – | – | – | 2.5 | 0.1 | HuD36S4 H3/L2 humanized anti-CD47 antibody (antibody, V domains shown) VH: EVQLVESGGGLVQPGGSLRLSCAASGFTFSRYWMNWVRQAPGKGLEWVAQIRLKSDNYETHYAESVKGRFTISRDDSKSSLYLQMNSLKTEDTAVYYCIEEGGYYVPFAYWGQGTLVTVSS VL: DIVMTQTPLSLPVTPGEPASISCKSSQSLFKSRTRKNYLAWYLQKPGQSPQLLIYWASIRESGVPDRFSGSGSGTDFTLKISRVEAEDVGVYYCKQSYYLLTFGGGTKVEIK
– | – | – | – | – | – | – | – | – | 4.4 | 0.17 | HuD36S4 H3/L1 humanized anti-CD47 antibody (antibody, V domains shown) VH: EVQLVESGGGLVQPGGSLRLSCAASGFTFSRYWMNWVRQAPGKGLEWVAQIRLKSDNYETHYAESVKGRFTISRDDSKSSLYLQMNSLKTEDTAVYYCIEEGGYYVPFAYWGQGTLVTVSS VL: DIVMTQSPDSLAVSLGERATINCKSSQSLFKSRTRKNYLAWYQQKPGQPPKLLIYWASIRESGVPDRFSGSGSGTDFTLTISSLQAEDVAVYYCKQSYYLLTFGGGTKVEIK
– | – | – | – | – | – | – | – | – | 13 | 2.76 | HuD36S4 H1/L2 humanized anti-CD47 antibody (antibody, V domains shown) VH: EVQLVESGGGLVQPGGSLRLSCAASGFTFSRYWMNWVRQAPGKGLEWVGQIRLKSDNYETHYAESVKGRFTISRDDSKNSLYLQMNSLKTEDTAVYYCAREGGYYVPFAYWGQGTLVTVSS VL: DIVMTQTPLSLPVTPGEPASISCKSSQSLFKSRTRKNYLAWYLQKPGQSPQLLIYWASIRESGVPDRFSGSGSGTDFTLKISRVEAEDVGVYYCKQSYYLLTFGGGTKVEIK
0.295 | 4.77e-05 | 161000 | 3.28 | 0.00049 | 150000 | 19.4 | 0.295 | 3.28 | – | – | D8S1 mouse/human chimeric anti-human CD47 antibody (antibody, V domains shown, also called chimeric D8S1) VH: EVQLQQSVAELVRPGASVKLSCTVSGFNIKNTYIYWVKQRPEQGLEWIGRIDPANGNTKDAPKFQGKATMTADTSSNTAYLQLSSLTSEDTAIYYCARGYGSGFAYWGQGTLVTVSA VL: DIQMTQTTSSLSASLGDRVTISCRASQDISNHLNWYQQKPDGIVKLLIYYTSRLHSGVPSRFSGSGSGTDYSLTISNLEQEDIATYFCQQGSTLPFTFGSGTKLEIK
– | 1.45e-05 | 257000 | 3.13 | 0.000253 | 80900 | 11.3 | 0.562 | 3.13 | – | – | D96S1 mouse/human chimeric anti-human CD47 antibody (antibody, V domains shown, also called chimeric D96S1) VH: EVQLQQSGAELVKPGASVKLSCTASGFNIKDTYIHWVKQRPEQGLEWIGRIDPANGNIKSDPKFQGKATVTADTSSNTAYLQLSSLTSEDTAVYYCARSYGSSFASWGQGTLVTVSP VL: DIQMTQTTSSLSASLGDRVTISCRASQDISNHLNWYQQKPDGAVKLLIYYTSRLHSGVPSRFSGSGSGTDYSLTISNLEQEDIATYFCQQGSTFPYTFGGGTKLEIK
0.228 | 3.34e-05 | 147000 | 5.2 | 0.000756 | 145000 | 11.6 | 0.228 | 5.2 | – | – | D41S2 mouse/human chimeric anti-human CD47 antibody (antibody, V domains shown, also called chimeric D41S2) VH: EVQLQQSVAELVRPGASVKLSCTPSGFNIKNTYIYWVRQRPEQGLEWIGRIDPANGNTKDAPKFQGKATMTADTSSNTAYLQLSSLTSEDTAIYYCARGYGSGFAYWGQGTLVTVSA VL: DIQMTQTTSSLSASLGDRVTISCRASQDISNHLNWYQQKPDGTVKLLIYYTSRLHSGVPSRFSGSGSGTDYSLTISNLEQEDIATYFCQQGSTLPFTFGSGTKLEIK
1.38 | 0.000413 | 299000 | – | – | – | 12.3 | 1.38 | – | – | – | D28S1 mouse/human chimeric anti-human CD47 antibody (antibody, V domains shown, also called chimeric D28S1; D28S1VH/VL) VH: EVQLVESGGDLVKPGGSLKLSCAASGFTFTSYGMSWVRQTPDKRLEWVATINTGGSYTYYPDSVKGRFTISRDNAKNTLYLQMSSLKSEDTAMYYCARHTIKSLMDYWGQGTSVTVSS VL: ETTVTQSPASLSMAIGEKVTIRCITSTDIDDDMNWYQQKPGEPPKLLISEGNTLRPGVPSRFSSSGYGTDFVFIIENMFSEDVADYYCLQSDNLPYTFGSGTKLEIK
